Biological target: FANCD2 (Homo sapiens, UniProt Q9BXW9 1-1451)
Experiment: EMSA; 200 ng protein; 20 mM HEPES pH 7.6, 5 mM EDTA, 1 mM DTT, 150 mM KCl, 50 mM (NH4)2SO4, 1% Tween-20; 20 min, room temperature; native 4% PAGE
Conditions: protein: recombinant; tags: His6 removed by thrombin; label: 32P; blunt (duplex implied; only one strand printed for EMSA)

FANCD2, sequence (Q9BXW9 whole entry): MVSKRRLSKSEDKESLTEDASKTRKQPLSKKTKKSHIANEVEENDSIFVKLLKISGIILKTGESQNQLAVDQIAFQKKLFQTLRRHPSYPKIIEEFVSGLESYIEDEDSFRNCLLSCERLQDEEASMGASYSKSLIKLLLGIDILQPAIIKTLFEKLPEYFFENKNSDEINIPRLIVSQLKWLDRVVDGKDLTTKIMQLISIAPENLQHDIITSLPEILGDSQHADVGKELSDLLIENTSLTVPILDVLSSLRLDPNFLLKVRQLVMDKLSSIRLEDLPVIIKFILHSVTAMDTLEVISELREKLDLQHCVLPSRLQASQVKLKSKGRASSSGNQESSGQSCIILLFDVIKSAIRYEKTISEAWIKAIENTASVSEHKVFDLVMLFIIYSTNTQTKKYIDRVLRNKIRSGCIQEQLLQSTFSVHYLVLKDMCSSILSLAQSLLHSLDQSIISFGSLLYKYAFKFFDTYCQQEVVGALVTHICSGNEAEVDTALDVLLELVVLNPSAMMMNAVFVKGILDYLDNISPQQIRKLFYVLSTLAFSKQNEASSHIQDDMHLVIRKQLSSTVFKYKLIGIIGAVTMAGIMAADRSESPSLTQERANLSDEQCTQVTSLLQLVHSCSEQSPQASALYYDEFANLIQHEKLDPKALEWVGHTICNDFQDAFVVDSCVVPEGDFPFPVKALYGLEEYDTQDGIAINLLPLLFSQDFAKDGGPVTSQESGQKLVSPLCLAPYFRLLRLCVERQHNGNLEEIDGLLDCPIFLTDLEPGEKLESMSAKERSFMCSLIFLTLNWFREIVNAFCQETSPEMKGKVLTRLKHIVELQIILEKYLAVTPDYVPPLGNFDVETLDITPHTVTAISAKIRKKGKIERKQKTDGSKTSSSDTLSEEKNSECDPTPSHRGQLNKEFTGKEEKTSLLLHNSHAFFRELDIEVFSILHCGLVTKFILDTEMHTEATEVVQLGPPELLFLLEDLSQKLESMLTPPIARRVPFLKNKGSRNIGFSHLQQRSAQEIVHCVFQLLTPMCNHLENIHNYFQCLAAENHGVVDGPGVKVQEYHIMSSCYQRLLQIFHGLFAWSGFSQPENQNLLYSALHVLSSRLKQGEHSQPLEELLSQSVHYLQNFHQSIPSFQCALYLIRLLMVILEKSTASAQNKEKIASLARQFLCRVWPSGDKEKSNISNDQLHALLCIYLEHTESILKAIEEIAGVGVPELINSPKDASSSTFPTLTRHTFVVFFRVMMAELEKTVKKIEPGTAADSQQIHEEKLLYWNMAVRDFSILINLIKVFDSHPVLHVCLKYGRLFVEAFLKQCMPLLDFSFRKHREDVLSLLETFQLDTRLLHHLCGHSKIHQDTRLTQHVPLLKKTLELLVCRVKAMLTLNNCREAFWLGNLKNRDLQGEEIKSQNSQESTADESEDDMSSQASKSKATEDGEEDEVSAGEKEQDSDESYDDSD

B1: kB1 (dsDNA)
DNA 1: GAGTATGGGGACCCCCCCTTAA
DNA 2: TTAAGGGGGGGTCCCCATACTC
Question: Does B1 bind?
Answer: binds

— paper PMC3166142, “Direct Inhibition of TNF-α Promoter Activity by Fanconi Anemia Protein FANCD2”
